# Laboratory results reported in patent US20050239710.
# T1: 19-mer (SEQ ID NO:11) cleavage domain peptide
# T1 chain: PRCGNPDVANYNFFPRKPK
# Biological target: T1, 19-mer (SEQ ID NO:11) cleavage domain …
protein,measurement,value
Proenzyme pro-MMP-9 (protein) APRQRQSTLVLFPGDLRTNLTDRQLAEEYLYRYGYTRVAEMRGESKSLGPALLLLQKQLSLPETGELDSATLKAMRTPRCGVPDLGRFQTFEGDLKWHHHNITYWIQNYSEDLPRAVIDDAFARAFALWSAVTPLTFTRVYSRDADIVIQFGVAEHGDGYPFDGKDGLLAHAFPPGPGIQGDAHFDDDELWSLGKGVVVPTRFGNADGAACHFPFIFEGRSYSACTTDGRSDGLPWCSTTANYDTDDRFGFCPSERLYTQDGNADGKPCQFPFIFQGQSYSACTTDGRSDGYRWCATTANYDRDKLFGFCPTRADSTVMGGNSAGELCVFPFTFLGKEYSTCTSEGRGDGRLWCATTSNFDSDKKWGFCPDQGYSLFLVAAHEFGHALGLDHSSVPEALMYPMYRFTEGPPLHKDDVNGIRHLYGPRPEPEPRPPTTTTPQPTAPPTVCPTGPPTVHPSERPTAGPTGPPSAGPTGPPTAGPSTATTVPLSPVDDACNVNIFDAIAEIGNQLYLFKDGKYWRFSEGRGSRPQGPFLIADKWPALPRKLDSVFEERLSKKLFFFSGRQVWVYTGASVLGPRRLDKLGLGADVAQVTGALRSGRGKMLLFSGRRLWRFDVKAQMVDPRSASEVDRMFPGVPLDTHDVFQYREKAYFCQDRFYWRVSSRSELNQVDQVGYVTYDILQCPED,conversion of pro-MMP-9 into prodomain and active enzyme by stromilysin (HPLC splicing assay),Splicing can be inhibited in a dose dependent manner with micromolar 19-mer (SEQ ID NO:11) peptide.
